Laboratory results published in the supplement of paper PMC10567573.

B1: ATL3 (parent)
chain: HFKKTKKMGGKDFSFRYQQELEEE

Variants of: B1
Assay: protein stability index of a GFP-peptide fusion (GPS, HEK-293T) (PSI 1-6); higher = more stable
Conditions: c terminus: a fixed tail appended
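Also: lentivirally expressed fusions sorted by FACS into six bins by GFP to DsRed ratio, PSI derived from sequencing read proportions per bin multiplied by bin number.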

| Variant | protein stability index |
| --- | --- |
| HFKKTKKMGGKDFSKRYQQELEEE | 3.04 |
| HFKKTKKMGGKDFSDRYQQELEEE | 1.76 |
| HFKKTKKMGGKDFSHRYQQELEEE | 2.71 |
| HFKKTKKMGGKDFSYRYQQELEEE | 1.54 |
| HFKKTKKMGGKDFSRRYQQELEEE | 1.83 |
| HFKKTKKMGGKDFSLRYQQELEEE | 2.46 |
| HFKKTKKMGGKDFSTRYQQELEEE | 2.24 |
| HFKKTKKMGGKDFSNRYQQELEEE | 1.66 |
| HFKKTKKMGGKDFSCRYQQELEEE | 3.07 |
| HFKKTKKMGGKDFSGRYQQELEEE | 2.22 |
| HFKKTKKMGGKDFSMRYQQELEEE | 2.39 |
| HFKKTKKMGGKDFSIRYQQELEEE | 1.42 |
| HFKKTKKMGGKDFSERYQQELEEE | 1.39 |
| HFKKTKKMGGKDFSPRYQQELEEE | 4.31 |
| HFKKTKKMGGKDFSARYQQELEEE | 2.54 |
| HFKKTKKMGGKDFSFRYNQELEEE | 2.54 |
| HFKKTKKMGGKDFSFRYKQELEEE | 2.09 |
| HFKKTKKMGGKDFSFRYTQELEEE | 2.27 |
| HFKKTKKMGGKDFSFRYPQELEEE | 4.2 |
| HFKKTKKMGGKDFSFRYIQELEEE | 1.85 |
| HFKKTKKMGGKDFSFRYEQELEEE | 2.73 |
| HFKKTKKMGGKDFSFRYRQELEEE | 1.44 |
| HFKKTKKMGGKDFSFRYHQELEEE | 2.34 |
| HFKKTKKMGGKDFSFRYDQELEEE | 4.65 |

| Variant | protein stability index |
| --- | --- |
| HFKKTKKMGGKDFSFRYAQELEEE | 2 |
| HFKKTKKMGGKDFSFRYGQELEEE | 1.87 |
| HFKKTKKMGGKDFSFRYLQELEEE | 2.64 |
| HFKKTKKMGGKDFSFRYYQELEEE | 1.81 |
| HFKKTKKMGGKDFSFRYQVELEEE | 2.92 |
| HFKKTKKMGGKDFSFRYQCELEEE | 1.57 |
| HFKKTKKMGGKDFSFRYQHELEEE | 2.38 |
| HFKKTKKMGGKDFSFRYQRELEEE | 2.52 |
| HFKKTKKMGGKDFSFRYQKELEEE | 1.89 |
| HFKKTKKMGGKDFSFRYQNELEEE | 4.01 |
| HFKKTKKMGGKDFSFRYQSELEEE | 2.5 |
| HFKKTKKMGGKDFSFRYQGELEEE | 3.99 |
| HFKKTKKMGGKDFSFRYQTELEEE | 2.21 |
| HFKKTKKMGGKDFSFRYQDELEEE | 3.36 |
| HFKKTKKMGGKDFSFRYQPELEEE | 3.56 |
| HFKKTKKMGGKDFSFRYQWELEEE | 2.03 |
| HFKKTKKMGGKDFSFRYQIELEEE | 1.46 |
| HFKKTKKMGGKDFSFRYQFELEEE | 1.71 |
| HFKKTKKMGGKDFSFRYQEELEEE | 2.45 |
| HFKKTKKMGGKDFSFRYQAELEEE | 3.52 |
| HFKKTKKMGGKDFSFGYQQELEEE | 4.22 |
| HFKKTKKMGGKDFSFVYQQELEEE | 2.54 |
| HFKKTKKMGGKDFSFYYQQELEEE | 2.18 |
| HFKKTKKMGGKDFSFHYQQELEEE | 3.09 |

| Variant | protein stability index |
| --- | --- |
| HFKKTKKMGGKDFSFFYQQELEEE | 3.07 |
| HFKKTKKMGGKDFSFNYQQELEEE | 3.69 |
| HFKKTKKMGGKDFSFTYQQELEEE | 4.47 |
| HFKKTKKMGGKDFSFMYQQELEEE | 2.84 |
| HFKKTKKMGGKDFSFKYQQELEEE | 2.51 |
| HFKKTKKMGGKDFSFQYQQELEEE | 3.08 |
| HFKKTKKMGGKDFSFPYQQELEEE | 4.96 |
| HFKKTKKMGGKDFSFWYQQELEEE | 2.11 |
| HFKKTKKMGGKDFSFCYQQELEEE | 3.28 |
| HFKKTKKMGGKDFSFDYQQELEEE | 5.02 |
| HFKKTKKMGGKDFSFLYQQELEEE | 2.45 |
| HFKKTKKMGGKDFSFAYQQELEEE | 2.98 |
| HFKKTKKMGGKDFSFEYQQELEEE | 5.18 |
| HFKKTKKMGGKDFSFSYQQELEEE | 4.39 |
| HFKKTKKMGGKDFGFRYQQELEEE | 2.54 |
| HFKKTKKMGGKDFKFRYQQELEEE | 3.31 |
| HFKKTKKMGGKDFYFRYQQELEEE | 3.61 |
| HFKKTKKMGGKDFVFRYQQELEEE | 2.17 |
| HFKKTKKMGGKDFQFRYQQELEEE | 1.93 |
| HFKKTKKMGGKDFNFRYQQELEEE | 4.1 |
| HFKKTKKMGGKDFTFRYQQELEEE | 3.24 |
| HFKKTKKMGGKDFWFRYQQELEEE | 4.01 |
| HFKKTKKMGGKDFMFRYQQELEEE | 2.91 |
| HFKKTKKMGGKDFPFRYQQELEEE | 3.12 |

| Variant | protein stability index |
| --- | --- |
| HFKKTKKMGGKDFHFRYQQELEEE | 4.29 |
| HFKKTKKMGGKDFLFRYQQELEEE | 2.35 |
| HFKKTKKMGGKDFFFRYQQELEEE | 3.85 |
| HFKKTKKMGGKDFSFRYQQALEEE | 3.31 |
| HFKKTKKMGGKDFSFRYQQFLEEE | 3.58 |
| HFKKTKKMGGKDFSFRYQQDLEEE | 2.25 |
| HFKKTKKMGGKDFSFRYQQCLEEE | 4.73 |
| HFKKTKKMGGKDFSFREQQELEEE | 5.02 |
| HFKKTKKMGGKDFSFRKQQELEEE | 4.89 |
| HFKKTKKMGGKDFSFRGQQELEEE | 4.68 |
| HFKKTKKMGGKDFSFRTQQELEEE | 2.38 |
| HFKKTKKMGGKDFSFRWQQELEEE | 2.61 |
| HFKKTKKMGGKDFSFRDQQELEEE | 5.61 |
| HFKKTKKMGGKDFSFRVQQELEEE | 2.03 |
| HFKKTKKMGGKDFSFRMQQELEEE | 4.21 |
| HFKKTKKMGGKDFSFRPQQELEEE | 4.68 |
| HFKKTKKMGGKDFSFRLQQELEEE | 2.1 |
| HFKKTKKMGGKDFSFRQQQELEEE | 4.78 |
| HFKKTKKMGGKDFSFRHQQELEEE | 3.72 |
| HFKKTKKMGGKDFSFRSQQELEEE | 3.14 |
| HFKKTKKMGGKDFSFRRQQELEEE | 5.25 |
| HFKKTKKMGGKDFSFRNQQELEEE | 5.28 |
